Experimental data: patent publication US20120156246A1

Biological target: histidine tagged PSMGFR peptide (MUC1* extra cellular domain)
Test: SPR, histidine-tagged PSMGFR on 3.8% or 5.7% NTA SAM chip

Chain of histidine tagged PSMGFR peptide (MUC1* extra cellular domain) (peptide, as listed by the source): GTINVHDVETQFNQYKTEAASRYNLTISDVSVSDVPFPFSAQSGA

Substance: NM23-S120G (100% hexamer preparation) (from UniProt P15531 1-152) (ligand)
- SPR binding response (RUs): 70 RU
